From article PMC4881948, “X-Ray Solution Scattering Study of Four Escherichia coli Enzymes Involved in Stationary-Phase Metabolism” (PLoS ONE, 2016)

Columns and labels:
[1] = molecular target: the molecule itself; assay: SAXS; solution scattering of the single protein, standard 50 mM Tris pH 7.5 buffer, 10°C, four concentrations 1.4-10.8 mg/ml; GadA stored in 100 mM Na-acetate, 10 mM NaCl, 1 mM DTT pH 4.6 and raised to pH 7.5 immediately before; oligomers from molecular mass, rigid-body modelling and OLIGOMER fits
[2] = molecular target: the molecule itself; assay: SEC + AUC; GadA at pH 7.5: Tris-HCl, 10 mM NaCl, 1 mM DTT pH 7.5; SEC on Superdex 200 10/300 GL, load 5 mg/ml; sedimentation velocity at 20°C, 0.4 mg/ml
[3] = molecular target: the molecule itself; assay: SEC + AUC; GadA at pH 4.6: 100 mM Na-acetate, 10 mM NaCl, 1 mM DTT pH 4.6; SEC on Superdex 200 10/300 GL, load 5 mg/ml; sedimentation velocity at 20°C, 0.4 mg/ml

Protein | stoichiometry N [1] | stoichiometry N [2] | stoichiometry N [3]
Class I fructose-1,6-bisphosphate aldolase (FbaB) from E. coli (enzyme, UniProt P0A991 1-350, looked up, Class I fructose bisphosphate aldolase FbaB, E. coli, UniProt A0A037Y4V8; 350 amino acids, calculated monomer 38.1 kDa; Decamer in solution by SAXS; also called Class I Fba; copies: 10) MTDIAQLLGKDADNLLQHRCMTIPSDQLYLPGHDYVDRVMIDNNRPPAVLRNMQTLYNTGRLAGTGYLSILPVDQGVEHSAGASFAANPLYFDPKNIVELAIEAGCNCVASTYGVLASVSRRYAHRIPFLVKLNHNETLSYPNTYDQTLYASVEQAFNMGAVAVGATIYFGSEESRRQIEEISAAFERAHELGMVTVLWAYLRNSAFKKDGVDYHVSADLTGQANHLAATIGADIVKQKMAENNGGYKAINYGYTDDRVYSKLTSENPIDLVRYQLANCYMGRAGLINSGGAAGGETDLSDAVRTAVINKRAGGMGLILGRKAFKKSMADGVKLINAVQDVYLDSKITIA | 10 | – | –
inorganic pyrophosphatase (PPase) from E. coli (enzyme, inorganic pyrophosphatase, E. coli; Hexamer in solution by SAXS) SLLNVPAGKDLPEDIYVVIEIPANADPIKYEIDKESGALFVDRFMSTAMFYPCNYGYINHTLSLDGDPVDVLVPTPYPLQPGSVIRCRPVGVLKMTDEAGEDAKLVAVPHSKLSKEYDHIKDVNDLPELLKAQIAHFFEHYKDLEKGKWVKVEGWENAEAAKAEIVASFERAKNK | 6 | – | –
glutamate decarboxylase (GadA) from E. coli (enzyme, glutamate decarboxylase GadA, E. coli; Hexamer at pH 4.6, mixture of hexamers and dimers at pH 7.5; also called GadA low-salt) MDQKLLTDFRSELLDSRFGAKAISTIAESKRFPLHEMRDDVAFQIINDELYLDGNARQNLATFCQTWDDENVHKLMDLSINKNWIDKEEYPQSAAIDLRCVNMVADLWHAPAPKNGQAVGTNTIGSSEACMLGGMAMKWRWRKRMEAAGKPTDKPNLVCGPVQICWHKFARYWDVELREIPMRPGQLFMDPKRMIEACDENTIGVVPTFGVTYTGNYEFPQPLHDALDKFQADTGIDIDMHIDAASGGFLAPFVAPDIVWDFRLPRVKSISASGHKFGLAPLGCGWVIWRDEEALPQELVFNVDYLGGQIGTFAINFSRPAGQVIAQYYEFLRLGREGYTKVQNASYQVAAYLADEIAKLGPYEFICTGRPDEGIPAVCFKLKDGEDPGYTLYDLSERLRLRGWQVPAFTLGGEATDIVVMRIMCRRGFEMDFAELLLEDYKASLKYLSDHPKLQGIAQQNSFKHT | – | 2 | 6
